From US20250092426, “CAS ENDONUCLEASES AND RELATED METHODS” (Flagship Pioneering Innovations VII, LLC, published 2025)

Target: T1, CasEnd-29 (synthetic construct)
T1 chain: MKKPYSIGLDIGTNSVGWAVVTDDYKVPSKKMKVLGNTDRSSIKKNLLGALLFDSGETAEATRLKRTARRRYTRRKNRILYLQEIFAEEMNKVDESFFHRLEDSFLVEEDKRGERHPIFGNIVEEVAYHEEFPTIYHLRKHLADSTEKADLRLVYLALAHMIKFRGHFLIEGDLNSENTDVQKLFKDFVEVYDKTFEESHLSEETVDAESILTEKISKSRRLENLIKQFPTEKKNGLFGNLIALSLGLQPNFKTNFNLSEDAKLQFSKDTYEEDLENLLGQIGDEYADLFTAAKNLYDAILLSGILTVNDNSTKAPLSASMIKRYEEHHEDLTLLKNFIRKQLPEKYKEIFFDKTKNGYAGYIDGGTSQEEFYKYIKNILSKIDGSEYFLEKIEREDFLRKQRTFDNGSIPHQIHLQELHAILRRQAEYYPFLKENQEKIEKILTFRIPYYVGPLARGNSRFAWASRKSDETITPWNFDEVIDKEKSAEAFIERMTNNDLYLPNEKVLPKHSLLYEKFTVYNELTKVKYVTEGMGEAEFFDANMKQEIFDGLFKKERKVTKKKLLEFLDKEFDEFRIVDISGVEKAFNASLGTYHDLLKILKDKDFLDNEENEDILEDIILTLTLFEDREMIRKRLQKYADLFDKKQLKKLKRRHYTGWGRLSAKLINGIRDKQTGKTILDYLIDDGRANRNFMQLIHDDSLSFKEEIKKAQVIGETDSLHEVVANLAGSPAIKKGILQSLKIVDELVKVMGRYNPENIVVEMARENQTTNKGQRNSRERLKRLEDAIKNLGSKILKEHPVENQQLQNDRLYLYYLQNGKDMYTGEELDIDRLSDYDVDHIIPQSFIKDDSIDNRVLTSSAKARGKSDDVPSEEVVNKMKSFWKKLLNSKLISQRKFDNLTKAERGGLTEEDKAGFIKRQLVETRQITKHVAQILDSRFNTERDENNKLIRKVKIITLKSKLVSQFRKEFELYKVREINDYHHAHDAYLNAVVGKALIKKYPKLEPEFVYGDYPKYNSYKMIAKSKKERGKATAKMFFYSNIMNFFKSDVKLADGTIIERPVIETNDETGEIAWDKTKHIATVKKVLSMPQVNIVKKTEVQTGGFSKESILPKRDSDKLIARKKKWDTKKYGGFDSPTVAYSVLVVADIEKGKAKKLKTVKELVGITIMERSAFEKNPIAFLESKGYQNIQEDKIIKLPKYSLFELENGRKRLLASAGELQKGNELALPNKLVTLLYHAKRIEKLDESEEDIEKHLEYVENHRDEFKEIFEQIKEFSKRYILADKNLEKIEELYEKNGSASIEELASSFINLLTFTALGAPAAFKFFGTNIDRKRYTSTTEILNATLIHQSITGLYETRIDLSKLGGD
Experiment: cell_activity; +++; HEK293T; PAM not stated
Outline: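 Editing activity was scored as the fraction of GFP+ cells on day 4 by flow cytometry. BFP-expressing HEK293T cells (250,000) received by nucleofection 200 ng plasmid for the RT-Cas fusion protein and 200 ng template RNA plasmid designed to convert BFP to GFP.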

B1: BFP-to-GFP template RNA ; BFP reporter protospacer (ssRNA ; dsDNA)
RNA: GCCGAAGCACUGCACGCCGUGUUUUAGAGCUAGAAAUAGCAAGUUAAAAUAAGGCUAGUCCGUUAUCAACUUGAAAAAGUGGCACCGAGUCGGUGCACCCUGACGUACGGCGUGCAGUGCUU
DNA 1: GCCGAAGCACTGCACGCCGT
DNA 2: ACGGCGTGCAGTGCTTCGGC
activity: ≥ 100 % of reference
